Reference: US20180127505A1, “HUMANIZED ANTI-AXL ANTIBODIES AND THEIR CONJUGATES” (MEDIMMUNE LIMITED, priority 2015, published 2018)

Assay: Capillary isoelectric focussing (pI)
Format: physicochemical
Conditions: HEK293F expression product
Method: Protocol 5: Capillary Isoelectric Focussing
• PA 800 plus (AB SCIEX) • Anolyte Solution: 200 mM Phosphoric Acid (Sigma-Aldrich #345 245). • 4.3M Urea (Sigma-Aldrich #U0631) in water. • Catholyte Solution: 300 mM Sodium Hydroxide. • 3M Urea (Sigma-Aldrich #U0631) in cIEF Gel (Beckman Coulter #477497). • Chemical Mobiliser: 350 mM Acetic Acid (Sigma-Aldrich #537 020). • Pharmalyte 3-10 (GE Healthcare 17-0456-01). • Cathodic Stabiliser: 500 mM Arginine (Sigma-Aldrich #A5006). • cIEF Peptide markers PI 4-10 (Beckman Coulter # A58481). • Anodic Stabiliser: 200 mM Iminodiacetic Acid (Sigma-Aldrich #220 000). • Neutral Capillary, 50 μm i.d.×45 cm, (Beckman Coulter #477 441)
• Turn on the PA800+ machine and UV lamp, allowing it to warm up 30 mins before use. • Clean the system electrodes and interface block with a damp Kimwipe. • Prepare buffer trays as shown, with 1.5 mL reagent per vial, 1 mL of water in the waste and place in the system. • 1. DDI water • 2. Anolyte • 3. Urea Solution • 4. 3M urea/cIEF Gel • 5. Chemical Mobilizer • 6. Waste • 7. Catholyte • 8. Chemical Mobilizer • 9. BI (Inlet Buffer Tray) • 10. BO (Outlet Buffer Tray) • NOTE. Each set of buffer vials is good for 6 consecutive runs or for 24 hours inside the instrument. • Insert the capillary cartridge into the system and close the front panel. • NOTE. […] When the capillary is not in use, submerge the capillary ends in vials filled with DDI water. • Prepare cIEF master mix using the table below. Dispense each reagent into a centrifuge tube, vortex 1 min, invert every 15-20 sec to ensure complete mixing and store at 2° C. to 8° C. for up to 1 day.
• Desalt and concentrate each antibody (to about 5 mg/ml) in 2M urea using Amicon Ultra 0.5 mL centrifugal filters (Sigma Z677108). • Mix 200 μL of master mix with 10 μL of protein, vortex the cIEF sample for 1 min, inverting the tube every 15-20 sec, then centrifuge at high speed to remove any air bubbles. Transfer 100 μL of sample into a micro vial. Place the micro vial into a universal plastic vial and cap it with a blue cap. Then place the sample vial in the inlet sample tray. • Run the “cIEF Conditioning—PA 800 plus.met” method to condition the column. • Rinse for 5 min at 50 psi with Chemical Mobilizer. See FIG. 2.10. • 2 Rinse for 2 min at 50 psi with DDI water. • 3 Rinse for 5 min at 50 psi with cIEF gel. • 4 Submerge both of the capillary ends in vials filled with DDI water. • Use the “cIEF Separation—PA 800 plus.met” method to create a sequence containing all protein samples and a blank. • Rinse for 3 min at 50 psi with Urea Solution. See FIG. 2.11. • Rinse for 2 min at 50 psi with DDI water. • Inject sample for 99.0 sec at 25 psi. • Water dip by submerging both capillary ends in DDI water. • Focusing step, 15 min at 25 kV under normal polarity (Time=0). • Chemical mobilization, 30 min at 30 kV under normal polarity (Time=15 min). • Stop data collection (Time=45 min). • Rinse for 2 min at 50 psi with DDI water (Time=45.10 min). • Submerged both of the capillary ends in DDI water (Time=47.20 min). • End the method (Time=47.30 min). • Put the “cIEF Shutdown—PA 800 plus.met” method at the end of the sequence to rinse the capillary and turn off the UV. • Rinse for 2 min at 50 psi with DDI water. See FIG. 2.12. • Rinse for 5 min at 50 psi with cIEF gel. • Turn off the UV lamp. • Submerge both of the capillary ends in vials filled with DDI water. • For short term storage (1 to 3 days), leave the capillary on the instrument. […]

Row | Molecule | pI
1 | Ab2: anti-AXL antibody, VH SEQ ID NO. 2, VL SEQ ID NO. 5, constant region derived from human antibodies (antibody, V domains shown, human constant regions; Synthetic heavy chain variable region 1H12RHA; Synthetic light chain variable region 1H12RKA, 5, constant region derived from human antibodies) VH: MGFKMESQFQVFVFVFLWLSGVDGQVQLVESGGGVVQPGRSLRLSCAASGFTFSSYGMSVRQAPGKGLEWVATISSGGSYTYYPDSVKGRFTISRDNSKNTLYLQMNSLRAEDTAVYYCARHPIYYTYDDTMDYWGQGTTVTVSS VL: MGFKMESQFQVFVFVFLWLSGVDGEIVLTQSPATLSLSPGERATLSCSASSSVSSGNFHWYQQKPGLAPRLLIYRTSNLASGIPDRFSGSGSGTDFTLTISRLEPEDFAVYYCQQWSGYPWTFGPGTKVDIK | 8.06
2 | Ab3: anti-AXL antibody, VH SEQ ID NO. 2, VL SEQ ID NO. 7, constant region derived from human antibodies (antibody, V domains shown, human constant regions; Synthetic heavy chain variable region 1H12RHA; Synthetic light chain variable region 1H12RKB, 7, constant region derived from human antibodies) VH: MGFKMESQFQVFVFVFLWLSGVDGQVQLVESGGGVVQPGRSLRLSCAASGFTFSSYGMSVRQAPGKGLEWVATISSGGSYTYYPDSVKGRFTISRDNSKNTLYLQMNSLRAEDTAVYYCARHPIYYTYDDTMDYWGQGTTVTVSS VL: MGFKMESQFQVFVFVFLWLSGVDGEIVLTQSPGTLSLSPGERATLSCSASSSVSSGNFHWYQQKPGLAPRLLIYRTSNLASGIPARFSGSGSGTDFTLTISSLEPEDFAVYYCQQWSGYPWTFGGGTKLEIK | 8.15
3 | Ab5: anti-AXL antibody, VH SEQ ID NO. 3, VL SEQ ID NO. 7, constant region derived from human antibodies (antibody, V domains shown, human constant regions; Synthetic heavy chain variable region 1H12RHB; Synthetic light chain variable region 1H12RKB, 7, constant region derived from human antibodies) VH: MGFKMESQFQVFVFVFLWLSGVDGEVQLVESGGGLVQPGGSLRLSCAASGFTFSSYGMSWVRQAPGKGLEWVATISSGGSYTYYPDSVKGRFTISRDNAKNSLYLQMNSLRAEDTAVYYCARHPIYYTYDDTMDYWGQGTLVTVSS VL: MGFKMESQFQVFVFVFLWLSGVDGEIVLTQSPGTLSLSPGERATLSCSASSSVSSGNFHWYQQKPGLAPRLLIYRTSNLASGIPARFSGSGSGTDFTLTISSLEPEDFAVYYCQQWSGYPWTFGGGTKLEIK | 7.54
4 | Ab4: anti-AXL antibody, VH SEQ ID NO. 3, VL SEQ ID NO. 5, constant region derived from human antibodies (antibody, V domains shown, human constant regions; Synthetic heavy chain variable region 1H12RHB; Synthetic light chain variable region 1H12RKA, 5, constant region derived from human antibodies) VH: MGFKMESQFQVFVFVFLWLSGVDGEVQLVESGGGLVQPGGSLRLSCAASGFTFSSYGMSWVRQAPGKGLEWVATISSGGSYTYYPDSVKGRFTISRDNAKNSLYLQMNSLRAEDTAVYYCARHPIYYTYDDTMDYWGQGTLVTVSS VL: MGFKMESQFQVFVFVFLWLSGVDGEIVLTQSPATLSLSPGERATLSCSASSSVSSGNFHWYQQKPGLAPRLLIYRTSNLASGIPDRFSGSGSGTDFTLTISRLEPEDFAVYYCQQWSGYPWTFGPGTKVDIK | 7.56
5 | Ab1 (antibody, V domains shown) VH: EVQLVESGGDLVKPGGSLKLSCAASGFTFSSYGMSWVRQTPDKRLEWVATISSGGSYTYYPDSVKGRFTISRDNAKNTLYLQMSSLKSEDTAMYYCARHPIYYTYDDTMDYWGQGTSVTVSS VL: ENVLTQSPAIMAASPGEKVTMTCSASSSVSSGNFHWYQQKPGTSPKLWIYRTSNLASGVPARFSGSGSGTSYSLTISSMEAEDAATYYCQQWSGYPWTFGGGTKLEIK | 8.05
